In paper PMC3413214, “Structural and biochemical characterization of a trapped coenzyme A adduct of Caenorhabditis elegans glucosamine-6-phosphate N-acetyltransferase 1” (Acta Crystallographica Section D: Biological Crystallography, 2012):

B1: Caenorhabditis elegans glucosamine-6-phosphate N-acetyltransferase 1 (enzyme, UniProt Q17427 1-165, looked up)
chain: MSHIFDASVLAPHIPSNLPDNFKVRPLAKDDFSKGYVDLLSQLTSVGNLDQEAFEKRFEAMRTSVPNYHIVVIEDSNSQKVVASASLVVEMKFIHGAGSRGRVEDVVVDTEMRRQKLGAVLLKTLVSLGKSLGVYKISLECVPELLPFYSQFGFQDDCNFMTQRF
notes: glucosamine-6-phosphate N-acetyltransferase 1 (GNA1) of Caenorhabditis elegans, full length, 165 amino acids per monomer; amplified from C. elegans cosmid B0024 DNA; Cloned into pGEX-6P-1 by BamHI and EcoRI; a few vector residues probably remain at the N-terminus after PreScission cleavage (surmised); In the orthorhombic crystal it holds CoA and GlcNAc-6P non-covalently; also called CeGNA1; GNA1; …
B2: CeGNA1–Cys–CoA adduct (enzyme, Caenorhabditis elegans, UniProt Q17427 1-165, looked up)
chain: B1 chain
modifications: Cys141 linked by a disulfide to coenzyme A
notes: glucosamine-6-phosphate N-acetyltransferase 1 (GNA1) of Caenorhabditis elegans, full length, 165 amino acids per monomer; same construct as m1; Same polypeptide as m1; differs only by the covalent CoA on Cys141, which DTT releases; also called CeGNA1–CoA adduct; covalent CoA complex; source: E. coli BL21 (DE3) pLysS, purified; adduct formed in the hexagonal (P6_1) crystals grown with acetyl-CoA, …

Experiments:
[1] = biological target: the molecule itself; assay: SEC; Superdex 75 26/60 gel-filtration column in buffer A (25 mM Tris-HCl pH 7.5, 250 mM NaCl, 2 mM EDTA); elution profile
[2] = biological target: the molecule itself; assay: crystal structure; sitting-drop vapour diffusion, 0.1 M Tris-HCl pH 8.5, 0.2 M sodium acetate, 30% PEG 3350, 11 mM BaCl2, 293 K; orthorhombic P2_1 2_1 2_1 form (1.75 Å, CoA and GlcNAc-6P bound) and hexagonal P6_1 form (1.55 Å, Cys141-CoA adduct); two subunits A and B in each

Row | Protein | stoichiometry N [1] | binding result [2]
1 | B1 | 2 | –
2 | B2 | – | binds
